{"source": "patent US20030180282A1", "about": "“Method of treatment of thrombotic events” (priority 2002, published 2003)", "key": {"platelets": {"system": "platelets", "experiment": "flow cytometry of platelet surface receptor expression in AMI patients during first 24 hours after r-PA or t-PA", "type": "in vivo, human", "excerpt": "Twenty-three consecutive patients admitted to the emergency rooms of St. Agnes Hospital, or the Union Memorial Hospital between July and December of 1996 with a diagnosis of acute myocardial infarction were included. All patients were enrolled in the randomized trial of Reteplase (r-PA) versus accelerated Alteplase (t-PA) for the treatment of acute myocardial infarction, (GUSTO-III trial).\nBlood samples for PA, and for flow cytometric studies were taken at prespecified intervals as follows: in the emergency room immediately before administration of the thrombolytic therapy and then in the coronary care unit at 3 hours, 6 hours, 12 hours, and finally at 24 hours after initiation of the r-PA or t-PA therapy.\nThirteen patients randomized to r-PA received a double bolus, 10+10 MU thirty minutes apart. Ten patients received t-PA in the accelerated regimen as a 15 mg bolus, then 0.75 mg/kg over 30 minutes, and then 0.50 mg/kg over 60 minutes. During the baseline sampling every patient had received 325 mg of aspirin and each day thereafter, at least 5,000 U of intravenous heparin. Following the administration of thrombolytic therapy all patients received a continuous infusion of heparin for the first 24 hours following thrombolysis as recommended in the GUSTO-III protocol.\nThe schedule of blood drawing, sample preparation and processing were critical issues of the study design, and were monitored by an independent observer. The actual timing of blood collection for the baseline sample was 9.5±1.4 minutes before the start of thrombolytic therapy; 174.6±21.8 minutes for the 3 hours sample; 371.1±24.2 minutes for 6 hours sample; 709.4±17.8 minutes for 12 hours sample; and 1402.9±18.8 minutes for 24 hours sample. Samples were processed within one hour after blood drawing. […] The reasons for early termination were as follows: patient transfer for emergency coronary angioplasty (3 patients), and inability to obtain blood sample (1 patient). Twenty three baseline samples; twenty two samples collected at 3 hours; twenty samples collected at 6 hours; twenty samples collected at 12 hours; and nineteen samples collected at 24 hours were included in the study analysis.\nFor flow cytometric analysis, venous blood (8 ml) was collected in a plastic tube containing 2 ml of acid-citrate-dextrose (ACD) (7.3 g citric acid, 22.0 g sodium citrate ×2H2O and 24.5 glucose in 1000 ml distilled water) and mixed well. The blood-ACD mixture was centrifuged at 1000 r.p.m. for 10 minutes at room temperature. The upper ⅔ of the platelet-rich plasma (PRP) was then collected and adjusted to pH=6.5 by adding ACD. The PRP was then centrifuged at 3000 r.p.m. for 10 minutes. The supernatant was removed and the platelet pellet was gently resuspended in 4 cc of the washing buffer (10 mM Tris/HCl, 0.15 M NaCl, 20 mM EDTA, pH=7.4). Platelets were washed 4 times in the washing buffer, and an additional four times in TBS (10 mM Tris, 0.15 M NaCl, pH=7.4). All cells were then divided into ten plastic capped tubes. Nine portions of washed platelets were incubated with 5 μl fluorescein isothiocyanate (FITC)-conjugated antibodies in the dark at +4° C. for 30 minutes, and one part remained unstained and served as a negative control. Surface antigen expression was measured with monoclonal murine anti-human antibodies: CD9 (p24); CD41a (IIb/IIIa, (IIb(3); CD42b (Ib); CD61(IIIa) (DAKO Corporation, Carpinteria Calif.); CD49b (VLA-2, or (2(1); CD62p (P selectin); CD31 (PECAM-1); CD 41b (IIb); and CD51/CD61 (vitronectin receptor, (v(3) (PharMingen, San Diego Calif.). After incubation, the cells were washed three times with TBS and resuspended in 0.25 ml of 1% paraformaldehyde. Samples were stored in the refrigerator at +4° C., and analyzed on a Becton Dickinson FACScan™ flow cytometry with laser output of 15 mw, excitation at 488 mm, and emission detection at 530±30 nm. […]"}, "[1]": {"conditions": "\"accelerated\" regimen, GUSTO trial; cited from earlier work"}}}
{"molecule": "t-PA: recombinant tissue plasminogen activator, thrombolytic agent (Genentech) (protein, UniProt P00750 36-562, looked up) Tissue-type plasminogen …: SYQVICRDEKTQMIYQQHQSWLRPVLRSNRVEYCWCNSGRAQCHSVPVKSCSEPRCFNGGTCQQALYFSDFVCQCPEGFAGKCCEIDTRATCYEDQGISYRGTWSTAESGAECTNWNSSALAQKPYSGRRPDAIRLGLGNHNYCRNPDRDSKPWCYVFKAGKYSSEFCSTPACSEGNSDCYFGNGSAYRGTHSLTESGASCLPWNSMILIGKVYTAQNPSAQALGLGKHNYCRNPDGDAKPWCHVLKNRRLTWEYCDVPSCSTCGLRQYSQPQFRIKGGLFADIASHPWQAAIFAKHRRSPGERFLCGGILISSCWILSAAHCFQERFPPHHLTVILGRTYRVVPGEEEQKFEVEKYIVHKEFDDDTYDNDIALLQLKSDSSRCAQESSVVRTVCLPPADLQLPDWTECELSGYGKHEALSPFYSERLKEAHVRLYPSSRCTSQHLLNRTVTDNMLCAGDTRSGGPQANLHDACQGDSGGPLVCLNDGRMTLVGIISWGLGCGQKDVPGVYTKVTNYLDWIRDNMRP", "values": [{"measurement": "glycoprotein IIIa expression compared to baseline", "setting": "platelets; 12 hours", "result": "not after t-PA therapy"}, {"measurement": "glycoprotein Ib expression compared to baseline", "setting": "platelets; 12 hours", "result": "significant inhibition"}, {"measurement": "platelet vitronectin receptor expression", "setting": "platelets; 12 hours after thrombolysis", "result": "significant increase"}, {"measurement": "glycoprotein IIIa expression compared to baseline", "setting": "platelets; 24 hours", "result": "not after t-PA therapy"}, {"measurement": "glycoprotein IIb/IIIa expression compared to baseline", "setting": "platelets; 24 hours", "result": "elevated"}, {"measurement": "p24 (CD 9) expression compared to baseline", "setting": "platelets; 24 hours", "result": "higher"}, {"measurement": "platelet vitronectin receptor expression", "setting": "platelets; 24 hours after thrombolysis", "result": "trended toward the baseline"}, {"measurement": "P-selectin expression, early change", "setting": "platelets; early", "result": "early significant decrease"}, {"measurement": "p24 (CD 9) expression compared to baseline", "setting": "platelets; early time points", "result": "no early receptor inhibition"}, {"measurement": "P-selectin expression, later change", "setting": "platelets; following the early decrease", "result": "significant increase"}, {"measurement": "benefit in mortality reduction", "setting": "[1]", "result": "further benefit"}]}
